This assay deals with hT1R2-hT1R3, human sweetness receptor (human) (UniProt Q8TE23). Nature of the assay: cell-based or functional assay.

From patent US20100040754A1 come the findings set out here.

Chain of UniProt Q8TE23 (Q8TE23 20-839, chain 1 of 2): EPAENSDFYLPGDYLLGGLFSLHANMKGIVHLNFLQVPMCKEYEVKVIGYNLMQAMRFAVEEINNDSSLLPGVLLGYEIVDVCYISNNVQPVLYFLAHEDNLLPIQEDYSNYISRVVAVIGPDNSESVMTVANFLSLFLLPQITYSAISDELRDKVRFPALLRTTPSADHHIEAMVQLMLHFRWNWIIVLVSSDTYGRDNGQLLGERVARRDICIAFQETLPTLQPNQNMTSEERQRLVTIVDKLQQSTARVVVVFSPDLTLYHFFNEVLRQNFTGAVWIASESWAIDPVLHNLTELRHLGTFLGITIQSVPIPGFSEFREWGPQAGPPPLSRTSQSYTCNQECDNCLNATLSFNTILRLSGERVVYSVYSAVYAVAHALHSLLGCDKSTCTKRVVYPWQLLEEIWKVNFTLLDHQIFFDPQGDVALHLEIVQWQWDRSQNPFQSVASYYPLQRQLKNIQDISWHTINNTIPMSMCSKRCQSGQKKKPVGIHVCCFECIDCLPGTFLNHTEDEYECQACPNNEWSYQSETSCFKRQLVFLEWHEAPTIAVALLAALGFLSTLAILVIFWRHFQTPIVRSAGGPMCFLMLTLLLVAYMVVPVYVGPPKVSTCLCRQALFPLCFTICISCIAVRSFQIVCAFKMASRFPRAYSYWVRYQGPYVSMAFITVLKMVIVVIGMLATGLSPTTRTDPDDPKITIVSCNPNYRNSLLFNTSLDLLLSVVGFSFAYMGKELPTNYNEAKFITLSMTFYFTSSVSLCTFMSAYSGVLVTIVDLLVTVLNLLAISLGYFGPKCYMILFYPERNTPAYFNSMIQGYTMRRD
Chain of UniProt Q8TE23 (Q7RTX0 21-852, chain 2 of 2, further chain): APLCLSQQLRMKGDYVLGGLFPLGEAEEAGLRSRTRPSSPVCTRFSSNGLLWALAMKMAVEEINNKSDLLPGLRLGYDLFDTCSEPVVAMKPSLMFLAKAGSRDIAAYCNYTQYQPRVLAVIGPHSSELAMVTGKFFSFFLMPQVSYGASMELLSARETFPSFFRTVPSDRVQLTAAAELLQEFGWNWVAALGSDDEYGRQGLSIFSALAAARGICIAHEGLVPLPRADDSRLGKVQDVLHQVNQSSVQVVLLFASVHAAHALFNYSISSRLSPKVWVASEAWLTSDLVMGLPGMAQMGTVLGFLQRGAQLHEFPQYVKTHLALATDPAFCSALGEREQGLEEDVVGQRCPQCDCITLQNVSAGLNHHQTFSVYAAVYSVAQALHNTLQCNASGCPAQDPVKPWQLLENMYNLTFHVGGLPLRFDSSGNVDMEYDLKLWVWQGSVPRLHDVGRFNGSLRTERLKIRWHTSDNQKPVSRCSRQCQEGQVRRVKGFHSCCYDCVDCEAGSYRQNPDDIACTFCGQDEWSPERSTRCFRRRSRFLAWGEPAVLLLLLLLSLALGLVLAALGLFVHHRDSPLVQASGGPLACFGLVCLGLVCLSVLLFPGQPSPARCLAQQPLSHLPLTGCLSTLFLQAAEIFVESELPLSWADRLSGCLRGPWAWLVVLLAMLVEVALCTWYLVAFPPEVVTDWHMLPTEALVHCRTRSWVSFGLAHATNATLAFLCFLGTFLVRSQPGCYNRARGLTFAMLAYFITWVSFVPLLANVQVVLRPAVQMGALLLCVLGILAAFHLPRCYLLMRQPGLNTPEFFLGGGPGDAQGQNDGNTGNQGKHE

In turn, “neoculin (heterodimer of polypeptide NAS and polypeptide NBS) (from UniProt Q6F495 23-135; P19667 23-136) (ligand)” gave a response of the cells around pH 7, against the response in the acidic region (fraction of the response) of 0.5 and a response of the cells around pH 8, against the response in the acidic region (fraction of the response) of 0.1.
